Source: patent US20260234232A1 (QUAERITE BIOPHARM RESEARCH BEIJING, published 2026)
Changes are numbered by the printed parent chain.

Tests used:
human VEGFA165 [1] = biological target: T1, human VEGFA165 (human, UniProt P15692-4 27-191); assay: ELISA, coated human VEGFA165, anti-His detection
T1 construct: Bought protein from two suppliers, treated as one molecule; the supplier is named under assay; also called antigen VEGFA
Protocol: Antigen human VEGFA165 (label-free, purchased from Sino Biological, Cat. No.: HPLC-10008-HNAH, hereinafter referred to as VEGFA) was diluted with ELISA coating buffer to a final concentration of 0.3 μg/mL and added to a microplate at 100 μL/well for coating at 4° C. overnight. […] The solution used for antibody dilution was PBS containing 0.1% Tween-20 (pH 7.4), i.e., PBST. After being incubated at 37° C. for 1 h, the microplate was washed 3 times with PBST, and a dilution of His-Tag murine monoclonal antibody (purchased from Proteintech, Cat. No.: 66005-1-Ig) was added. The plate was further incubated at 37° C. for 1 h and washed again. Subsequently, a dilution of HRP-labeled goat anti-mouse IgG antibody (HRP-conjugated Affinipure Goat Anti-Mouse IgG (H+L), purchased from Proteintech, Cat. No.: SA00001-1) was added, and the plate was incubated at room temperature for 45 min. After the plate was washed, 100 μL of TMB (purchased from Tiangen Biotech, Cat. No.: PA107-01) was added to each well for color development at 37° C. for 15 min, followed by the addition of 50 μL of stopping solution. The absorbance at 450 nm (OD450) was measured using a microplate reader.

human VEGFA165 [2] = biological target: T1, human VEGFA165; assay: competitive ELISA, coated VEGFA, competitor VEGFR2-ECD-Fc 1 nM

T1 sequence (P15692 other isoform, or with tags, fused parts or gaps limits assumed): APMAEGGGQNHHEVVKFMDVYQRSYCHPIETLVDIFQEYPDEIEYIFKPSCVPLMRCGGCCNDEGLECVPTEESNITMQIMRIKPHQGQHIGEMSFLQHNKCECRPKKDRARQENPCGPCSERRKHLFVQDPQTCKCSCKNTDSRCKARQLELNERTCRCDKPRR

B1: 2V1-EAAAK-Rigid (VHH)
chain: QLQLVESGGGSVQPGGSLRLSCEVSGRTFSSYTMGWFRQAPGKEREFVVAISKGGYKYDSVSLEARFTISKDNTKNTVYLQMNSLKPEDTAVYYCAATRAYGSSRLRLADTYEYWGQGTQVTVSSLAEAAAKEAAAKEAAAKEAAAKEAAAKAAAQLQLVESGGGSVQPGGSLRLSCEVSGRTFSSYTMGWFRQAPGKEREFVVAISKGGYKYDSVSLEARFTISKDNTKNTVYLQMNSLKPEDTAVYYCAATRAYGSSRLRLADTYEYWGQGTQVTVSS
notes: Tandem bivalent nanobody
With B1 the EC50 (human VEGFA165 [1]) was 220 pM.

B2: 2V1-30GS (VHH)
chain: QLQLVESGGGSVQPGGSLRLSCEVSGRTFSSYTMGWFRQAPGKEREFVVAISKGGYKYDSVSLEARFTISKDNTKNTVYLQMNSLKPEDTAVYYCAATRAYGSSRLRLADTYEYWGQGTQVTVSSGGGGSGGGSGGGGSGGGSGGGSGGGSGGGSQLQLVESGGGSVQPGGSLRLSCEVSGRTFSSYTMGWFRQAPGKEREFVVAISKGGYKYDSVSLEARFTISKDNTKNTVYLQMNSLKPEDTAVYYCAATRAYGSSRLRLADTYEYWGQGTQVTVSS
notes: Tandem bivalent nanobody
Binder B2 has an EC50 (human VEGFA165 [1]) of 220 pM.

B3: 2V1-(AP)5 (VHH)
chain: QLQLVESGGGSVQPGGSLRLSCEVSGRTFSSYTMGWFRQAPGKEREFVVAISKGGYKYDSVSLEARFTISKDNTKNTVYLQMNSLKPEDTAVYYCAATRAYGSSRLRLADTYEYWGQGTQVTVSSPDSAPAPAPAPAPDGSSQLQLVESGGGSVQPGGSLRLSCEVSGRTFSSYTMGWFRQAPGKEREFVVAISKGGYKYDSVSLEARFTISKDNTKNTVYLQMNSLKPEDTAVYYCAATRAYGSSRLRLADTYEYWGQGTQVTVSS
notes: Tandem bivalent nanobody
Binder B3 has an EC50 (human VEGFA165 [1]) of 190 pM.

B4: 2V1-39GS (VHH)
chain: QLQLVESGGGSVQPGGSLRLSCEVSGRTFSSYTMGWFRQAPGKEREFVVAISKGGYKYDSVSLEARFTISKDNTKNTVYLQMNSLKPEDTAVYYCAATRAYGSSRLRLADTYEYWGQGTQVTVSSGGGGSGGGSGGGGSGGGGSGGGGSGGGGSGGGGSGGGGSQLQLVESGGGSVQPGGSLRLSCEVSGRTFSSYTMGWFRQAPGKEREFVVAISKGGYKYDSVSLEARFTISKDNTKNTVYLQMNSLKPEDTAVYYCAATRAYGSSRLRLADTYEYWGQGTQVTVSS
notes: Tandem bivalent nanobody
B4 showed an EC50 (human VEGFA165 [1]) of 180 pM.

B5: 2V1-3A (VHH)
chain: QLQLVESGGGSVQPGGSLRLSCEVSGRTFSSYTMGWFRQAPGKEREFVVAISKGGYKYDSVSLEARFTISKDNTKNTVYLQMNSLKPEDTAVYYCAATRAYGSSRLRLADTYEYWGQGTQVTVSSAAAQLQLVESGGGSVQPGGSLRLSCEVSGRTFSSYTMGWFRQAPGKEREFVVAISKGGYKYDSVSLEARFTISKDNTKNTVYLQMNSLKPEDTAVYYCAATRAYGSSRLRLADTYEYWGQGTQVTVSS
notes: Tandem bivalent nanobody
B5 showed an EC50 (human VEGFA165 [1]) of 250 pM.

B6: 2V1-3GS (VHH)
chain: B5 chain with A126G, A127G, A128S
notes: Tandem bivalent nanobody
For B6, the IC50 (human VEGFA165 [2]) was 3000 pM and the “Maximum inhibition rate (%)” value (human VEGFA165 [2]) was 91%.

B7: 2V1-(AP)10 (VHH)
chain: QLQLVESGGGSVQPGGSLRLSCEVSGRTFSSYTMGWFRQAPGKEREFVVAISKGGYKYDSVSLEARFTISKDNTKNTVYLQMNSLKPEDTAVYYCAATRAYGSSRLRLADTYEYWGQGTQVTVSSPDSAPAPAPAPAPAPAPAPAPAPDGSSQLQLVESGGGSVQPGGSLRLSCEVSGRTFSSYTMGWFRQAPGKEREFVVAISKGGYKYDSVSLEARFTISKDNTKNTVYLQMNSLKPEDTAVYYCAATRAYGSSRLRLADTYEYWGQGTQVTVSS
notes: Tandem bivalent nanobody
B7 showed an EC50 (human VEGFA165 [1]) of 180 pM.
